Data reported in patent US20160263155A1, “T CELL RECEPTORS DIRECTED AGAINST THE PREFERENTIALLY EXPRESSED ANTIGEN OF MELANOMA AND USES THEREOF” (LEIDEN UNIVERSITY MEDICAL CENTER, priority 2015, published 2016).
Where a chain is given by its changes, count along the chain named. In names and notes the source's numbering stands.

B1: ^402GCFNF^406AAAAA: Caspase-9 homodimerization domain mutant (SEQ ID NOS 95 and 99) (protein, UniProt P55211 1-416, looked up, variant G402A C403A F404A N405A F406A)
chain: MDEADRRLLRRCRLRLVEELQVDQLWDALLSRELFRPHMIEDIQRAGSGSRRDQARQLIIDLETRGSQALPLFISCLEDTGQDMLASFLRTNRQAAKLSKPTLENLTPVVLRPEIRKPEVLRPETPRPVDIGSGGFGDVGALESLRGNADLAYILSMEPCGHCLIINNVNFCRESGLRTRTGSNIDCEKLRRRFSSLHFMVEVKGDLTAKKMVLALLELAQQDHGALDCCVVVILSHGCQASHLQFPGAVYGTDGCPVSVEKIVNIFNGTSCPSLGGKPKLFFIQACGGEQKDHGFEVASTSPEDESPGSNPEPDATPFQEGLRTFDQLDAISSLPTPSDIFVSYSTFPGFVSWRDPKSGSWYVETLDDIFEQWAHSEDLQSLLLRVANAVSVKGIYKQMPAAAAALRKKLFFKTS
B2: ^402GCFNF^406CIVSM: Caspase-9 homodimerization domain mutant (SEQ ID NOS 95 and 101) (Casp-3) (protein, UniProt P55211 1-416, looked up, variant G402C C403I F404V N405S F406M)
chain: B1 chain with A402C, A403I, A404V, A405S, A406M
B3: ^402GCFNF^406YCSTL: Caspase-9 homodimerization domain mutant (SEQ ID NOS 95 and 100) (Casp-2) (protein, UniProt P55211 1-416, looked up, variant G402Y F404S N405T F406L)
chain: B1 chain with A402Y, A403C, A404S, A405T, A406L
B4: ^402GCFNF^406QPTFT: Caspase-9 homodimerization domain mutant (SEQ ID NOS 95 and 102) (Casp-8) (protein, UniProt P55211 1-416, looked up, variant G402Q C403P F404T N405F F406T)
chain: B1 chain with A402Q, A403P, A404T, A405F, A406T
B5: Q328K (protein)
chain: GFGDVGALESLRGNADLAYILSMEPCGHCLIINNVNFCRESGLRTRTGSNIDCEKLRRRFSSLHFMVEVKGDLTAKKMVLALLELAQQDHGALDCCVVVILSHGCQASHLQFPGAVYGTDGCPVSVEKIVNIFNGTSCPSLGGKPKLFFIQACGGEQKDHGFEVASTSPEDESPGSNPEPDATPFQEGLRTFDKLDAISSLPTPSDIFVSYSTFPGFVSWRDPKSGSWYVETLDDIFEQWAHSEDLQSLLLRVANAVSVKGIYKQMPGCFNFLRKKLFFKTS
B6: F406L (protein)
chain: B5 chain with K194Q, F272L
B7: D315A-D330A (protein)
chain: B5 chain with D181A, K194Q, D196A
B8: S144D (protein)
chain: B5 chain with S10D, K194Q
B9: G402Y (protein)
chain: B5 chain with K194Q, G268Y
B10: D330A-T317E (protein)
chain: B5 chain with T183E, K194Q, D196A
B11: F404A (protein)
chain: B5 chain with K194Q, F270A
B12: F404S (protein)
chain: B5 chain with K194Q, F270S
B13: G402I (protein)
chain: B5 chain with K194Q, G268I
B14: S196D (protein)
chain: B5 chain with S62D, K194Q
B15: G402A (protein)
chain: B5 chain with K194Q, G268A
B16: D330A-Y153F (protein)
chain: B5 chain with Y19F, K194Q, D196A
B17: S144A (protein)
chain: B5 chain with S10A, K194Q
B18: T317S (protein)
chain: B5 chain with T183S, K194Q
B19: C403P (protein)
chain: B5 chain with K194Q, C269P
B20: D330A-Y153A (protein)
chain: B5 chain with Y19A, K194Q, D196A
B21: G402Q (protein)
chain: B5 chain with K194Q, G268Q
B22: Q328R (protein)
chain: B5 chain with K194R
B23: L329G (protein)
chain: B5 chain with K194Q, L195G

Tested on: chimeric Caspase-9 polypeptide
Sequence (as listed by the source, change not shown): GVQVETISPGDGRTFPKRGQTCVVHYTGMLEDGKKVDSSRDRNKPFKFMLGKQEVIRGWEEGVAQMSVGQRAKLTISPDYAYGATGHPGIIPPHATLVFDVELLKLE
Assay: Caspase mutant classes and basal activity (Table 3)
Type: cell-based, human
Settings: class heading of Table 3

Molecule | Basal Activity
B1 | dead
B2 | dead
B3 | dead
B4 | dead
B5 | Increased
B6 | dead
B7 | dead
B8 | Decreased
B9 | dead
B10 | dead
B11 | dead
B12 | dead
B13 | dead
B14 | Decreased
B15 | dead
B16 | dead
B17 | Decreased
B18 | Decreased
B19 | dead
B20 | dead
B21 | dead
B22 | Increased
B23 | Increased
